Source: patent US20210179728A1

Experiments:
[1] = biological target: SIRPa on human monocytes (human) (UniProt P78324); experiment: flow cytometry on human monocytes v1/v1, PE anti-human Fc; MFI [B, panel B table]
[2] = biological target: SIRPa on human monocytes (human) (UniProt P78324); experiment: flow cytometry on human monocytes v1/v1, PE anti-human Fc; percent of stained monocytes [B, panel A table]

EC50 [1]: 0.59 mg/L
EC50 [2]: 0.242 mg/L
B1: HALA (antibody, human IgG4 S228P, kappa, V domains shown)
VH: EVQLVQSGAEVKKPGESLRISCKASGYTFTSYWVHWVRQMPGKGLEWIGNIDPSDSDTHYNQKFKDHVTLSVDKSISTAYLQLSSLKASDTAMYYCVRGGTGTMAWFAYWGQGTLVTVSS
VL: DVVMTQSPLSLPVTLGQPASISCRSSQSLVHSYGNTYLYWYQQRPGQSPRLLIYRVSNRFSGVPDRFSGSGSGTDFTLKISRVEAEDVGVYFCFQGTHVPYTFGGGTKVEIKR
